B1: multimeric protein SEQ ID NO: 51 (designed binder)
chain: QDSTSDLIPAPPLSKVPLQQNFQDNQFHGKWYVVGQAGNIRLREDKDPIKMMATIYELKEDKSYDVTMVKFDDKKCMYDIWTFVPGSQPGEFTLGKIKSFPGHTSSLVRVVSTNYNQHAMVFFKFVFQNREEFYITLYGRTKELTSELKENFIRFSKSLGLPENHIVFPVPIDQCIDGAEAAAKEAAAKEAAAKAGVRLWATRQAMLGQVHEVPEGWLIFVAEQEELYVRVQNGFRKVQLEARTPLGGGGSGGGGSGGGGSQDSTSDLIPAPPLSKVPLQQNFQDNQFHGKWYVVGQAGNIRLREDKDPIKMMATIYELKEDKSYDVTMVKFDDKKCMYDIWTFVPGSQPGEFTLGKIKSFPGHTSSLVRVVSTNYNQHAMVFFKFVFQNREEFYITLYGRTKELTSELKENFIRFSKSLGLPENHIVFPVPIDQCIDGGGSGGAPEQKLISEEDLGSHHHHHHHHHH
B2: multimeric protein SEQ ID NO: 53 (designed binder)
chain: GVRLWATRQAMLGQVHEVPEGWLIFVAEQEELYVRVQNGFRKVQLEARTPLGGGGSGGGGSGGGGSQDSTSDLIPAPPLSKVPLQQNFQDNQFHGKWYVVGQAGNIRLREDKDPIKMMATIYELKEDKSYDVTMVKFDDKKCMYDIWTFVPGSQPGEFTLGKIKSFPGHTSSLVRVVSTNYNQHAMVFFKFVFQNREEFYITLYGRTKELTSELKENFIRFSKSLGLPENHIVFPVPIDQCIDGGGGGSGGGGSGGGGSQDSTSDLIPAPPLSKVPLQQNFQDNQFHGKWYVVGQAGNIRLREDKDPIKMMATIYELKEDKSYDVTMVKFDDKKCMYDIWTFVPGSQPGEFTLGKIKSFPGHTSSLVRVVSTNYNQHAMVFFKFVFQNREEFYITLYGRTKELTSELKENFIRFSKSLGLPENHIVFPVPIDQCIDGGGSGGAPEQKLISEEDLGSHHHHHHHHHH
B3: multimeric protein SEQ ID NO: 50 (designed binder)
chain: QDSTSDLIPAPPLSKVPLQQNFQDNQFHGKWYVVGQAGNIRLREDKDPIKMMATIYELKEDKSYDVTMVKFDDKKCMYDIWTFVPGSQPGEFTLGKIKSFPGHTSSLVRVVSTNYNQHAMVFFKFVFQNREEFYITLYGRTKELTSELKENFIRFSKSLGLPENHIVFPVPIDQCIDGGGGGSGGGGSGGGGSGGGGSGGGGSGVRLWATRQAMLGQVHEVPEGWLIFVAEQEELYVRVQNGFRKVQLEARTPLGGGGSGGGGSGGGGSQDSTSDLIPAPPLSKVPLQQNFQDNQFHGKWYVVGQAGNIRLREDKDPIKMMATIYELKEDKSYDVTMVKFDDKKCMYDIWTFVPGSQPGEFTLGKIKSFPGHTSSLVRVVSTNYNQHAMVFFKFVFQNREEFYITLYGRTKELTSELKENFIRFSKSLGLPENHIVFPVPIDQCIDGGGSGGAPEQKLISEEDLGSHHHHHHHHHH
B4: multimeric protein SEQ ID NO: 49 (designed binder)
chain: QDSTSDLIPAPPLSKVPLQQNFQDNQFHGKWYVVGQAGNIRLREDKDPIKMMATIYELKEDKSYDVTMVKFDDKKCMYDIWTFVPGSQPGEFTLGKIKSFPGHTSSLVRVVSTNYNQHAMVFFKFVFQNREEFYITLYGRTKELTSELKENFIRFSKSLGLPENHIVFPVPIDQCIDGGGGGSGVRLWATRQAMLGQVHEVPEGWLIFVAEQEELYVRVQNGFRKVQLEARTPLGGGGSGGGGSGGGGSQDSTSDLIPAPPLSKVPLQQNFQDNQFHGKWYVVGQAGNIRLREDKDPIKMMATIYELKEDKSYDVTMVKFDDKKCMYDIWTFVPGSQPGEFTLGKIKSFPGHTSSLVRVVSTNYNQHAMVFFKFVFQNREEFYITLYGRTKELTSELKENFIRFSKSLGLPENHIVFPVPIDQCIDGGGSGGAPEQKLISEEDLGSHHHHHHHHHH
B5: GPC3-specific lipocalin mutein SEQ ID NO: 90 (designed binder)
chain: QDSTSDLIPAPPLSKVPLQQNFQDNQFQGKWYVVGRAGNVGLREDKDPPKMWATIYELKEDKSYDVTNVRFARKKCTYSIGTFVPGSQPGEFTLGQIKSEPGGTANLVRVVSTNYNQHAMVFFKEVYQNREIFFIILYGRTKELTSELKENFIRFSKSLGLPENHIVFPVPIDQCIDG
notes: Monomeric hNGAL mutein

T3 sequence (A9YYE7 entry or part of it limits assumed): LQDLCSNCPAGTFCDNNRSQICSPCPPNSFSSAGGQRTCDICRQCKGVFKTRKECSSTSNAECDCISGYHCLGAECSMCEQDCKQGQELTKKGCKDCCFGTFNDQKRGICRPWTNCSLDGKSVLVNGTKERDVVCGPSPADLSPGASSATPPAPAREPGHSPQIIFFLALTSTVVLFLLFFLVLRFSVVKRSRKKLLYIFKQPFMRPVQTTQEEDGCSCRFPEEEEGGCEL
T4 sequence (P51654 25-554 limits assumed): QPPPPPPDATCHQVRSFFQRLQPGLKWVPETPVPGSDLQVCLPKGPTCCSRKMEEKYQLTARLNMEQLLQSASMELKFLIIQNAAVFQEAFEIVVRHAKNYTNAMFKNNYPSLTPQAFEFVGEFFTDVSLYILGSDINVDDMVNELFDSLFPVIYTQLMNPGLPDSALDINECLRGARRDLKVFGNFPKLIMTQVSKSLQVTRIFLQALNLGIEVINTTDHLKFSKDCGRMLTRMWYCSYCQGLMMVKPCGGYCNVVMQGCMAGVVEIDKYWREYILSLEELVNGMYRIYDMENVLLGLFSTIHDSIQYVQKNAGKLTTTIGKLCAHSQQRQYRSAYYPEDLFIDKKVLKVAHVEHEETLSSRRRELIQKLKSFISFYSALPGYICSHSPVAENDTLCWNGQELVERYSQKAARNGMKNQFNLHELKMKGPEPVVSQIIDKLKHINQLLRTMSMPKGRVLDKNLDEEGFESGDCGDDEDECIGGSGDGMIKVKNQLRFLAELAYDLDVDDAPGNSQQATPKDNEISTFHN

One assay has as its target T1, recombinant hu4-1BB-His (human 4-1BB with a C-terminal polyhistidine tag, R&D Systems) (human, UniProt Q07011 24-186).
T1 construct: Bought; not shown: C-terminal polyhistidine tag
Nature of the assay: ELISA, hu4-1BB-His coated, detection anti-NGAL-HRP. Here is the method: Recombinant hu4-1BB-His (human 4-1BB with a C-terminal polyhistidine tag, R&D Systems) at the concentration of 1 μg/mL in PBS was coated overnight on microtiter plates at 4° C. After washing with PBS-0.05% T (PBS supplemented with 0.05% (v/v) Tween 20), the plates were blocked with 2% BSA (w/v) in PBS-0.1% T (PBS supplemented with 0.1% (v/v) Tween 20) for 1 h at room temperature. After washing with 100 μL PBS-0.05% T five times, exemplary multimeric proteins (SEQ ID NOs: 38-44 and 46-53) or 4-1BB-specific lipocalin mutein as included in the multimeric protein (SEQ ID NO: 64) at different concentrations, ranging from 100 to 0.002 nM, were added to the wells and incubated for 1 h at room temperature, followed by another wash step. Bound molecules under study were detected by incubation with 1:1000 diluted anti-NGAL-HRP in PBS-0.1% T-2% BSA. After an additional wash step, fluorogenic HRP substrate (QuantaBlu, Thermo) was added to each well and the fluorescence intensity was detected using a fluorescence microplate reader.
The results of exemplary experiments are depicted in FIG. 2, together with the fit curves resulting from a 1:1 binding sigmoidal fit, where the EC₅₀ value and the maximum signal were free parameters, and the slope was fixed to one. The observed EC₅₀ values toward the hu4-1BB of all tested multimeric proteins were in the sub nanomolar range.
On to B1, for which the EC50 came to 0.15 nM.

Take B2: the EC50 stood at 0.14 nM.

Consider B3, for which the concentration giving a half-maximal response (EC50) stood at 0.13 nM.

For B4, the half-maximal effective concentration (EC50) was 0.13 nM.

The target of the next assay is T2, human 4-1BB on cells (human, UniProt Q07011 24-255).
T2 construct: whole, on cells; Stably transfected CHO cells (flow cytometry) and bought Jurkat reporter cells (bioassay); also called Flp-In-CHO::hu4-1BB; human 4-1BB-expressing CHO cells
T2 sequence (Q07011 24-255): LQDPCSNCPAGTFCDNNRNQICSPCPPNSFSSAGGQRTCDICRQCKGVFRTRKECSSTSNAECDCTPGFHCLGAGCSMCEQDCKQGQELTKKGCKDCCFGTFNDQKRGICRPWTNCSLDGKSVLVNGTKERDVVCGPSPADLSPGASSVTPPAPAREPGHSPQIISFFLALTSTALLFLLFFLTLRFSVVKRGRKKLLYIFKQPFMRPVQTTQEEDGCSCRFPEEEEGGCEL
Put plainly: flow cytometry, Flp-In-CHO::hu4-1BB cells. Here is the method:
(§1) CHO cells were stably transfected with human 4-1BB, cynomolgus 4-1BB, or a mock control using the Flp-In system (Life Technologies) according to the manufacturer's instructions. Transfected CHO cells were maintained in Ham's F12 medium (Life Technologies) supplemented with 10% Fetal Calf Serum (Biochrom) and 500 μg/ml Hygromycin B (Roth). Cells were cultured in cell culture flasks according to manufacturer's instruction (37° C., 5% CO₂ atmosphere).
(§2) 5×10⁴ cells per well were incubated for 1 h in ice-cold PBS containing 5% fetal calf serum (PBS-FCS). A dilution series of the tested multimeric proteins (SEQ ID NOs: 38-44 and 46-55), the 4-1BB-targeting lipocalin mutein as included in the multimeric proteins (SEQ ID NO: 64) or the GPC3-targeting lipocalin SEQ ID NO: 90 were added to the cells and incubated for 1 h on ice. Cells were washed twice with PBS and then incubated with a rabbit anti-NGAL or a goat anti-human IgG labeled with fluorescent dye Alexa 488 for 30 min on ice. Human IgG4 isotype (SEQ ID NOs: 29 and 30) and lipocalin mutein SEQ ID NO: 8 were tested as a negative control. Cells were subsequently washed and analyzed using iQue Flow cytometer (Intellicyte Screener). Mean geometric fluorescent signals were plotted and fitted with Graphpad software using nonlinear regression (shared bottom, four parameters, variable slope).
For B1, the response was half-maximal at 4.41 nM (EC50).

B2 yielded an EC50 of 4.2 nM.

Molecule B3 yielded a concentration giving a half-maximal response (EC50) of 2.49 nM.

Turning to B4, a half-maximal effect (EC50) was put at 4.99 nM.

The target in another assay is T2, human 4-1BB on cells. Put plainly: cell-based or functional assay.
For B1, the “EC50 [nM], 4-1BB bioassay (NFκB-luc2/4-1BB Jurkat luminescence), with HepG2 cells” value (“EC50 [nM], 4-1BB bioassay” below) was found to be 0.97 nM.

As for B2, the “EC50 [nM], 4-1BB bioassay” value is 1.83 nM.

As to B3, the “EC50 [nM], 4-1BB bioassay” value stood at 0.92 nM.

With B4, the “EC50 [nM], 4-1BB bioassay” value was 0.9 nM.

The next assay addresses T3, cynomolgus 4-1BB on CHO cells (cynomolgus, UniProt A9YYE7 24-254).
T3 construct: also called Flp-In-CHO::cyno4-1BB; cynomolgus 4-1BB-expressing CHO cells
Put plainly: flow cytometry, Flp-In-CHO::cyno4-1BB cells. Here is the method: as §1, §2
B1 registered an EC50 of 4.41 nM.

B2 came in with an EC50 of 4.55 nM.

On to B3, for which the EC50 is 2.62 nM.

B4 yielded a concentration for a half-maximal effect (EC50) of 2.75 nM.

A further assay has as its target T4, human GPC3 on HepG2 cells (human, UniProt P51654 25-554).
T4 construct: whole, on cells; Endogenous GPC3 of the tumor cell line; also called GPC3-positive tumor cell line HepG2; human GPC3-expressing HepG2 cells
Nature of the assay: flow cytometry, HepG2 cells. Here is the method: GPC3-positive tumor cell line HepG2 was cultured in Dulbecco's Modified Eagle's Medium ([…], Pan Biotech) supplemented with 10% Fetal Calf Serum (Sigma-Aldrich) and in cell culture flasks according to manufacturer's instruction (37° C., 5% CO₂ atmosphere).
as §2
B5 gave an EC50 of 1.53 nM.

Another assay has as its target T5, hu4-1BB-Fc (R&D Systems) (human, UniProt Q07011 24-186).
T5 construct: Bought; also called human 4-1BB; not shown: human IgG Fc of the bought fusion
Nature of the assay: SPR (Biacore 8K), hu4-1BB-Fc captured by anti-human IgG Fc; apparent value, 1:1 fit. Here is the method:
The anti-human IgG Fc antibody (GE Healthcare) was immobilized on a CM5 sensor chip using standard amine chemistry: the carboxyl groups on the chip were activated using 1-ethyl-3-(3-dimethylaminopropyl)-carbodiimide (EDC) and N-hydroxysuccinimide (NHS). Subsequently, anti-human IgG Fc antibody solution (GE Healthcare) at a concentration of 25 μg/mL in 10 mM sodium acetate (pH 5.0) was applied at a flow rate of 5 μL/min until an immobilization level of 4000-10000 resonance units (RU) was achieved. Residual non-reacted NHS-esters were blocked by passing a solution of 1 M ethanolamine across the surface. The reference channel was treated in an analogous manner. Subsequently, hu4-1BB-Fc (R&D Systems) at 0.3 μg/mL was captured by the anti-human IgG-Fc antibody at the chip surface for 180 s at a flow rate of 10 μL/min.
The binding assay was carried out with a contact time of 180 s, a dissociation time of 1200 s or 3000 s and a flow rate of 30 μL/min. All measurements were performed at 25° C. Lipocalin mutein SEQ ID NO: 64 as included in the multimeric proteins was also tested as […]. […] Prior to the protein measurements, three startup cycles were performed for conditioning purposes. Data were evaluated with Biacore Evaluation software. Double referencing was used and the 1:1 binding model was used to fit the raw data.
As to B1, the Kd came to 0.36 nM, the off-rate constant (koff) was 2.53e-05 s⁻¹ and the kon turned out to be 71000 M⁻¹ s⁻¹.

B2: the Kd turned out to be 0.13 nM, the koff stood at 9.99e-06 s⁻¹ and the kon turned out to be 77100 M⁻¹ s⁻¹.

With B3, the Kd worked out at 0.17 nM, the off-rate (koff) was determined as 1.36e-05 s⁻¹ and the kon is 78800 M⁻¹ s⁻¹.

B4: the Kd came to 0.21 nM, the off-rate (koff) was determined as 1.91e-05 s⁻¹ and the kon stood at 90200 M⁻¹ s⁻¹.

The record behind these values is US20230227568A1 (Pieris, published 2023).
